Data reported in the supplement of paper PMC10126150.
± gives the standard deviation of the averaged measurements.

system: ATP; assay: switch fluorescence ratio, 500 uM ATP over buffer (Cy3 cluster intensity, sum of 5 cycles each) (fold (ratio)); higher = stronger signal-on switching upon ATP binding; sequences stand for … in TCGTCGGCAGCGTCAGATGTGTATAAGAGACAGTTTTTTTTTTTTTTTTTTTTTTTTT…TC; conditions: aptamer strand: ATP DNA aptamer (quencher-CACCTGGGGGAGTATTGCGGAGGAAGG + anchor), 100 nM annealed; ATP concentration: 500 uM
Method in brief: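 For every switch-domain sequence, the fluorescence ratio is the mean of per-cluster values, each being summed target-cycle Cy3 intensity over summed buffer-cycle Cy3 intensity. Clusters outside 100-1000 RFU were excluded. On a modified Illumina MiSeq flow-cell, the Cy3-labelled switching-strand clusters were annealed to 100 nM quencher-labelled ATP aptamer, imaged in selection buffer and then after 15 min with 500 uM ATP at 22 °C. Five such cycles were run, with NaOH stripping and re-annealing between them.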
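Further: ATP exposure 15 min at 22 °C before imaging.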

Sequence	switch fluorescence ratio
TGGGGTCGGG	1 ± 0.022
TGGGGTCGTC	1.038 ± 0.0087
TGGGGTCGTG	0.964 ± 0.022
TGGGGTGCAC	0.957 ± 0.024
TGGGGTTATC	0.9931 ± 0.0079
TGGGGTTATG	0.984 ± 0.019
TGGGGTTG	0.993 ± 0.018
TGGGGTTGAG	0.984 ± 0.019
TGGGGTTGAT	0.968 ± 0.033
TGGGGTTTCA	1 ± 0.012
TGGGGTTTCC	1.16 ± 0.32
TGGGTAAACA	1.02 ± 0.012
TGGGTAACGT	0.987 ± 0.033
TGGGTAAGGC	0.961 ± 0.08
TGGGTAATGC	1.27 ± 0.13
TGGGTAATTG	1.01 ± 0.019
TGGGTACAGT	1.03 ± 0.05
TGGGTAGGTT	1.06 ± 0.035
TGGGTATAGG	0.975 ± 0.016
TGGGTCCGTT	1.01 ± 0.036
TGGGTCTCTA	1 ± 0.018
TGGGTCTTGG	0.9835 ± 0.0057
TGGGTGCCGT	1.04 ± 0.034
TGGGTGGAGG	1.02 ± 0.043
TGGGTGGCAA	1.03 ± 0.05

Sequence	switch fluorescence ratio
TGGGTGGGAA	1.02 ± 0.04
TGGGTGGGGG	1 ± 0.024
TGGGTGGTCT	0.9972 ± 0.0054
TGGGTGGTTT	1.02 ± 0.019
TGGGTGTGCT	1.01 ± 0.03
TGGGTGTTGC	0.941 ± 0.083
TGGGTGTTTG	1.03 ± 0.038
TGGGTTAAAG	0.993 ± 0.016
TGGGTTAAGA	1.01 ± 0.034
TGGGTTAATG	0.9912 ± 0.0069
TGGGTTATCG	0.998 ± 0.025
TGGGTTCGAA	0.98 ± 0.013
TGGGTTGTTA	0.9852 ± 0.0095
TGGGTTTCT	1 ± 0.041
TGGGTTTCTG	1.02 ± 0.021
TGGGTTTCTT	1.016 ± 0.0055
TGGGTTTGAG	0.99 ± 0.035
TGGGTTTGAT	1.01 ± 0.041
TGGGTTTGTG	0.996 ± 0.033
TGGTAAAATT	1.031 ± 0.01
TGGTAAAGCA	1.06 ± 0.11
TGGTAAAGGT	0.985 ± 0.014
TGGTAATATT	0.962 ± 0.015
TGGTAGTTCG	1.01 ± 0.046
TGGTATAGGT	0.994 ± 0.038

Sequence	switch fluorescence ratio
TGGTATGGGG	1.03 ± 0.087
TGGTATGGGT	1.23 ± 0.33
TGGTATGTAG	1.02 ± 0.031
TGGTCCCCGG	0.997 ± 0.025
TGGTCCGCTA	1.755 ± 0.011
TGGTCCTAGG	1 ± 0.016
TGGTCGTCCG	0.971 ± 0.057
TGGTCGTTCT	1.03 ± 0.033
TGGTCGTTTT	1.01 ± 0.04
TGGTCTTCTC	1.16 ± 0.26
TGGTCTTTGT	1 ± 0.015
TGGTCTTTTT	0.995 ± 0.037
TGGTGAGATC	0.965 ± 0.0039
TGGTGAGGTG	1.02 ± 0.02
TGGTGATTAG	0.995 ± 0.023
TGGTGCTTGT	1.02 ± 0.024
TGGTGGAGGT	0.977 ± 0.011
TGGTGGCCTT	1.03 ± 0.032
TGGTGGCGTT	1.026 ± 0.0082
TGGTGGGGAT	0.985 ± 0.029
TGGTGGGGCG	1.11 ± 0.051
TGGTGGGGTC	1 ± 0.034
TGGTGGTAGG	0.984 ± 0.063
TGGTGGTCAG	0.98151 ± 0.00069
TGGTGGTGTG	0.983 ± 0.035

Sequence	switch fluorescence ratio
TGGTGGTTGT	1.02 ± 0.012
TGGTGTACTT	1.01 ± 0.012
TGGTGTATAG	1 ± 0.036
TGGTGTCAGC	1.02 ± 0.013
TGGTGTGAAT	1.01 ± 0.036
TGGTGTGGGC	0.985 ± 0.048
TGGTGTTGCT	0.9797 ± 0.0068
TGGTGTTTGT	0.983 ± 0.029
TGGTGTTTTA	0.994 ± 0.023
TGGTTAAAGG	0.978 ± 0.024
TGGTTAAGGA	1 ± 0.013
TGGTTAAGGG	1 ± 0.041
TGGTTAAGGT	0.982 ± 0.033
TGGTTACTTC	1.04 ± 0.028
TGGTTAGATT	0.996 ± 0.034
TGGTTATACT	0.973 ± 0.052
TGGTTCACGT	1 ± 0.024
TGGTTCAGAG	0.969 ± 0.044
TGGTTCGGGT	1.03 ± 0.036
TGGTTGAATT	0.992 ± 0.05
TGGTTGGACG	0.997 ± 0.017
TGGTTGGGCC	0.985 ± 0.06
TGGTTGGGTG	1.03 ± 0.059
TGGTTGGTCA	0.992 ± 0.01
TGGTTGTCGC	0.991 ± 0.065
